According to article PMC12193154, “Effect of Mutations in the C-Terminal 22–24 Domains of Filamin C Associated with Cardio- and Myopathies on Its Interaction with Small Heat Shock Protein HspB7” (International Journal of Molecular Sciences, 2025):

Tests used:
[1] = target: the molecule itself; test: cross-linking; isolated proteins or equimolar mixture, 30 min at 30 °C in 25 mM HEPES/NaOH pH 7.4, 100 mM NaCl, 2 mM DTT, then 0.0125% glutaraldehyde 30 min at 30 °C; SDS gel and anti-HspB7 immunoblot
[2] = target: T1, small heat shock protein HspB7 (full-size) (UniProt Q9UBY9 1-170); test: native gel or EMSA; fixed HspB7 (25 or 30 µM) or AcdB7 (35 µM) in 20 mM Tris-acetate pH 7.6, 100 mM NaCl titrated with 0-120 µM FLNC fragment, 30 min at 30 °C; native 12.5% polyacrylamide gel, Tris-glycine pH 8.6; band intensities, semi quantitative, apparent affinity; conditions: both partners purified
T1 construct: small heat shock protein HspB7, full-size; also called full-size HspB7; full-length HspB7; source: recombinant, expressed and purified as described earlier [25,34]
T1 sequence (Q9UBY9 whole entry, the tested form may be a part): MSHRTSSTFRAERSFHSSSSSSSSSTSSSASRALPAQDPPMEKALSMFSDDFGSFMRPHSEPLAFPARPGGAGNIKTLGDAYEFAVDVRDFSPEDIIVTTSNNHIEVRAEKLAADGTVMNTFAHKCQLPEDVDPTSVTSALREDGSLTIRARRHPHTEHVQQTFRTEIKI

[3] = target: T2, α-crystallin domain of HspB7 (AcdB7) containing residues 77-155 (UniProt Q9UBY9 77-155); test: as above; conditions: both partners purified
T2 construct: small heat shock protein HspB7, α-crystallin domain, residues 77-155; source: recombinant, expressed and purified as described earlier [25,34]
T2 sequence (Q9UBY9 77-155): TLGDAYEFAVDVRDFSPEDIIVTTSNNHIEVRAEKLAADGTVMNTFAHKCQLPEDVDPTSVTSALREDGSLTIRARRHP

[4] = target: the molecule itself; test: SEC; isolated FLNC fragments, 0.1 mg in 100 µL, Superdex 200 10/300, 0.5 mL/min, 50 mM Na-phosphate pH 7.4, 150 mM NaCl, 0.1 mM EDTA, 0.1 mM PMSF, 2 mM DTT, room temperature; apparent molecular weights from column calibration

Binder | stoichiometry N [1] | EC50 [2] | stoichiometry N [2] | EC50 [3] | stoichiometry N [3] | stoichiometry N [4]
ΔPGL mutant (p.P2643_L2645del) of the FLNC fragment containing immunoglobulin-like domains 22-24 (domain or fragment, human, UniProt Q14315 2403-2725, looked up, human filamin C (FLNC), Uniprot Q14315, residues 2403-2725, with deletion of the tripeptide 2643-PGL-2645 (mutation associated with restrictive cardiomyopathy); also called ΔPGL FLNC; c.7927_7935del; source: recombinant, expressed and purified as described earlier [23]; (ion-exchange and size-exclusion chromatography)) SLSDDARRLTVTSLQETGLKVNQPASFAVQLNGARGVIDARVHTPSGAVEECYVSELDSDKHTIRFIPHENGVHSIDVKFNGAHIPGSPFKIRVGEQSQAGDPGLVSAYGPGLEGGTTGVSSEFIVNTLNAGSGALSVTIDGPSKVQLDCRECPEGHVVTYTPMAPGNYLIAIKYGGPQHIVGSPFKAKVTGPRLSGGHSLHETSTVLVETVTKSSSSRGSSYSSIPKFSSDASKVVTRGSQAFVGQKNSFTVDCSKAGTNMMMVGVHGPKTPCEEVYVKHMGNRVYNVTYTVKEKGDYILIVKWGDESVPGSPFKVKVP | 2 |  |  |  |  | 
EN/D mutant (p.Glu2472_Asn2473delinsAsp) of the FLNC fragment containing immunoglobulin-like domains 22-24 (domain or fragment, human, UniProt Q14315 2403-2725, looked up, human filamin C (FLNC), Uniprot Q14315, residues 2403-2725, with Glu2472 and Asn2473 replaced by Asp (mutation associated with restrictive cardiomyopathy); also called c.7416_7418delGAA; source: recombinant, expressed and purified as described earlier [23]; (ion-exchange and size-exclusion chromatography)) SLSDDARRLTVTSLQETGLKVNQPASFAVQLNGARGVIDARVHTPSGAVEECYVSELDSDKHTIRFIPHDGVHSIDVKFNGAHIPGSPFKIRVGEQSQAGDPGLVSAYGPGLEGGTTGVSSEFIVNTLNAGSGALSVTIDGPSKVQLDCRECPEGHVVTYTPMAPGNYLIAIKYGGPQHIVGSPFKAKVTGPRLSGGHSLHETSTVLVETVTKSSSSRGSSYSSIPKFSSDASKVVTRGPGLSQAFVGQKNSFTVDCSKAGTNMMMVGVHGPKTPCEEVYVKHMGNRVYNVTYTVKEKGDYILIVKWGDESVPGSPFKVKVP |  | ~10 µM | 2 HspB7/FLNC | ~20 µM | 1 | 2
wild-type (WT) C-terminal fragment of human filamin C (FLNC) containing immunoglobulin-like domains 22-24 (domain or fragment, UniProt Q14315 2403-2725, looked up, human filamin C (FLNC), Uniprot Q14315, immunoglobulin-like domains 22-24, amino acid residues 2403-2725; Dimer by SEC and cross-linking; also called WT FLNC; WT FLNC fragment; source: recombinant, expressed and purified as described earlier [23]; (ion-exchange and size-exclusion chromatography)) SLSDDARRLTVTSLQETGLKVNQPASFAVQLNGARGVIDARVHTPSGAVEECYVSELDSDKHTIRFIPHENGVHSIDVKFNGAHIPGSPFKIRVGEQSQAGDPGLVSAYGPGLEGGTTGVSSEFIVNTLNAGSGALSVTIDGPSKVQLDCRECPEGHVVTYTPMAPGNYLIAIKYGGPQHIVGSPFKAKVTGPRLSGGHSLHETSTVLVETVTKSSSSRGSSYSSIPKFSSDASKVVTRGPGLSQAFVGQKNSFTVDCSKAGTNMMMVGVHGPKTPCEEVYVKHMGNRVYNVTYTVKEKGDYILIVKWGDESVPGSPFKVKVP |  | ~10 µM | 2 HspB7/FLNC | ~20 µM | 1 | 2
